In the supplement of paper PMC12764529:
± gives the half width of the 95% confidence interval.

Legend:
[1] = folding stability dG unfold from trypsin proteolysis; higher = more stable
Method in brief: (§1)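 Digests were run with trypsin and chymotrypsin at 11 concentrations in threefold dilutions, plus a no-protease condition, on designed mini-proteins in a PA-tagged cDNA display construct. The mini-proteins were under 80 residues, had no cysteine, and were kept only when AlphaFold2 dimer inter-PAE was above 15. After sequencing, Bayesian fitting of the counts gave K50, from which unfolding free energy was derived against a sequence-predicted unfolded-state K50 and a shared folded-state K50, per protease or combined.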

[2] = folding stability dG unfold from chymotrypsin proteolysis; higher = more stable
Method in brief: as §1

[3] = folding stability dG unfold (combined trypsin and chymotrypsin); higher = more stable
Method in brief: as §1

Row | Sequence | folding stability dG unfold [1] [kcal/mol] | folding stability dG unfold [2] [kcal/mol] | folding stability dG unfold [3] [kcal/mol]
1 | SAGTIKEIAETIAEFMRQNGMNIKVKLTEVDPNDPNYVKVRVEIEMWYYKKNGKPLGPMRHTMTIVIRSAGG [r19_418_TrROS] | 2.84 ± 0.11 | 3.42 ± 0.13 | 2.92 ± 0.29
2 | SAGGSADLPPEVGSVTYSQNVPLDEIDEFIQEVIEKLGISPEEIKEIKVSRKTVPGSGVVSLTIVLSAGGSA [r15_934_JUSTAS] | 1.46 ± 0.061 | 1.18 ± 0.072 | 1.34 ± 0.13
3 | SAGGSAGNPVPKVTVTDVTFGIPESDPSLLEKKAEEVAAELNKPELTVTITEYDPATYTFTITVVSSAGGSA [r15_563_JUSTAS] | 0.648 ± 0.021 | 1.89 ± 0.07 | 1.48 ± 0.059
4 | SAGGSAGGSAAITIEVKPGETVTITLEIEVELPPGARAADGRTFKPGEKVRVTVTLTLRVEPSAGGSAGGSA [r18_450_TrROS_Hall] | 3.72 ± 0.21 | 4.21 ± 0.27 | 4.26 ± 0.22
5 | SGGMEKTENGNVRPVPLPTTVVKETPPEVSPEEAKERVEKELKEKGYKNVKVTTSYDPSTNLVTITVTVESA [r9_1124_JUSTAS] | 0.447 ± 0.071 | 0.624 ± 0.076 | 0.564 ± 0.09
6 | SAGGKKVVITLTAEELEELLKEGKPLTAEEIARRLLPPGAKVTVEVTYDPETKEVTVTVVIEVPEELESAGG [r13_862_TrROS_Hall] | 2.27 ± 0.13 | 2.16 ± 0.21 | 2.22 ± 0.12
7 | SAGGSAKDILDQLKISDVHESNGMRTITLEMPGNNLPPDEIREIFEELGYEVEINPKNGRITFTIPSAGGSA [r15_599_TrROS] | 2.09 ± 0.051 | 1.83 ± 0.02 | 1.95 ± 0.039
8 | SAGGSAGGSAYWRIKIFYPNNGREVTIHVPGSADDILDEAKPQFGYPPDNIKKIKIEPMDNSAGGSAGGSAG [r3_79_TrROS] | -0.409 ± 0.33 | 0.783 ± 0.35 | 0.432 ± 0.21
9 | SAMKEMTAEELAKKLEEELRKLFPDVEIKVEIVEVKEDYVVIKVEITVRLKKPDGKEVEFKLELVLKVDSAG [r14_187_TrROS_Hall] | 3.1 ± 0.41 | 3.55 ± 0.15 | 3.4 ± 0.32
10 | GMVEVTEERFEPETGKRIVTIRAPGRDLTVTFDPSTGIATFYDPSDGRTFTVPFTSLEEAVEAAKELALEES [r1_177_JUSTAS] | 3.1 ± 0.07 | 4.81 ± 0.11 | 4.47 ± 0.11
11 | SAGGSASTPDGKTKTYTNTNPGATEEEVKPIAEEIAKEIAEKLGLDLSEIGISVSYDPNTGTISPLIGSAGG [r13_913_JUSTAS] | -0.00514 ± 0.061 | -0.321 ± 0.49 | -0.105 ± 0.59
12 | SAGGSAMRIKDVNPDNGYFRIEPPDNGKPIYELNVEAMKKAQENGDIPPWVRELLNHEPGYRIEPVSAGGSA [r15_359_TrROS] | -0.979 ± 0.49 | -0.291 ± 0.21 | -0.327 ± 0.15
13 | SAGGKVVPKNVKLPVTKEAEELAKKLAPELGYKKAEVKVKSAVEGYVKVEIYFPETGKKVEITVPVGSAGGS [r16_281_TrMRF] | -0.0217 ± 0.086 | 1.04 ± 0.025 | 0.739 ± 0.07
14 | SAGGSAKRVIVIGSKEERERAREAAEKENLEVVEIEGPVEEALAKLKELFPEIDEIVIVLPEEEEESAGGSA [r15_712_TrROS_Hall] | 0.68 ± 0.14 | 0.768 ± 0.14 | 0.899 ± 0.19
15 | SAGKNWYIQIQIEHRDPDGKPKREIPIIIEANPGDPEAFERALEFAERIAEKLHPPGHRVEINVTLFPYSAG [r5_793_TrROS] | 2.73 ± 0.23 | 2.17 ± 0.1 | 2.43 ± 0.17
16 | SAGGSAGGSAGKKIKVRIKVKDPETNEYYEIEIEAETEEEALEALKKLFPNVKKVEIVPASAGGSAGGSAGG [r11_25_TrROS_Hall] | 3.26 ± 0.11 | 2.69 ± 0.11 | 3.18 ± 0.15
17 | SAGGSKEYEVKIVKIKEVKVENGKVYIKLEVEVRDKKTGKLLPSAEELAKELKKKFPNLKIEVKKPSAGGSA [r2_27_TrROS_Hall] | 2.24 ± 0.13 | 2.4 ± 0.12 | 2.42 ± 0.24
18 | SAGGEKKVLIVKVEIKLINNGGEFEAEFVFPEDVTLEEILAKVKELLPPGAKAEIKIKEIKLVSEDGSAGGS [r16_393_TrMRF] | 3.93 ± 0.18 | 2.76 ± 0.15 | 3.58 ± 0.39
19 | SAGGPPGEEIPIMVRIKMRNPENGEEMELPITHTVKSKEDLKWAKKLVDEIAEEFREQGMKDVEIEIFSAGG [r13_360_TrROS] | 0.47 ± 0.15 | 1.07 ± 0.21 | 0.908 ± 0.15
20 | SAGGKIIEAIKELLKEGKKLSKEEILKKLKEALRKKAEEEGKPIEEIEITSIHFDKETNEVHIEIKPSAGGS [r16_365_TrROS_Hall] | 2.48 ± 0.12 | 2.63 ± 0.1 | 2.57 ± 0.089
21 | SAGKKKKEVKKITLVIEFPEEMTEEELKERAEKLAEELKKKFPKIKKIEVKVEKKDGKLIVTVEIEIEKSAG [r5_446_TrROS_Hall] | 2.02 ± 0.064 | 1.78 ± 0.079 | 1.88 ± 0.15

Row | Sequence | folding stability dG unfold [1] [kcal/mol] | folding stability dG unfold [2] [kcal/mol] | folding stability dG unfold [3] [kcal/mol]
22 | SAGGSAGGSMYLIRVTTEDNIELTFLVSEDDIEAFEAFAKALAELFPVPVKVEIEPVEEGEEVSAGGSAGGS [r12_385_TrMRF] | 3.2 ± 0.16 | 3.74 ± 0.043 | 3.54 ± 0.086
23 | SAGGSAETVVVRIEVRDPETGETLELEIEVRRDMTEEELRELAEELARALKEAGYEVRVEVVRLPPSAGGSA [r15_268_TrROS_Hall] | 3.11 ± 0.073 | 2.26 ± 0.11 | 2.61 ± 0.091
24 | SAGMTSVEKRTLTFETEEEAEKEIKKIADELKKKGYKTEVKIEEVTKEKTEKGDSRYKVTATMKITKKESAG [r5_158_JUSTAS] | 0.681 ± 0.074 | 0.792 ± 0.14 | 0.76 ± 0.17
25 | MLTLPDGRPAFVRARVVLPPGVRVTVVGDIPAEELERRLGRRVTPEDIVRAVVEAARRRGLTVEAVELDLRS [r1_338_TrMRF] | 1.11 ± 0.013 | 1.02 ± 0.031 | 1.09 ± 0.034
26 | SATPTLTLEFEVEVEDPNAPGVPAPAKFTAEVAVTPPPVLYVGGEPWAGALLEQGLVTVGPDGLIAIPASAG [r14_582_TrMRF] | 0.442 ± 0.072 | 1.11 ± 0.13 | 0.775 ± 0.13
27 | SAGMIEKLIREAFPAGAKSIRIEVRRLPDGSLLVRIDIHFDDPEVRRALADRIEELLGLPIPDLRVSPDSAG [r5_542_TrMRF] | 2.26 ± 0.035 | 3.067 ± 0.028 | 2.81 ± 0.042
28 | SAGRIHFMDSPSQARDQAEENNYPIVIGMDKGSGWMQIAIYKGGKPKPIRQIPPNNPEINRFIKKLGFTSAG [r5_458_TrROS] | 0.149 ± 0.093 | -0.14 ± 0.16 | 0.0603 ± 0.14
29 | SAGGSAGSMPVEVTVTITVKDKNGTVLGTFPIKITVTSEEELEAKIKELKEKLKKEGYIVEKVDVVSAGGSA [r15_1054_JUSTAS] | 3.85 ± 0.17 | 2.65 ± 0.041 | 3.24 ± 0.091
30 | SAGFDWRTVKFPISPELRDKLKEDGFEIVGTSPNYITITVPVVPPPSPEELEEAEKEGMTWEEARDKASAGG [r19_115_TrROS] | -0.0911 ± 0.091 | -0.652 ± 0.82 | -0.0214 ± 0.26
31 | SAGGMMTLKITIVDEDGNEITIEVEMSIEELEELIKELFPGKKVKVVSVEEEPVEPGLVKVTIKIEKESAGG [r13_832_TrROS_Hall] | 3.6 ± 0.12 | 5.01 ± 0.16 | 4.96 ± 0.33
32 | SAGGSAGGSMTVTITFAPDESLGPEKLEELLKKAGPDTTIVLSKYDPATGTTSTATIKVEPGSSAGGSAGGS [r12_913_JUSTAS] | 0.697 ± 0.046 | 1.25 ± 0.013 | 1.07 ± 0.07
33 | SAGGMSLSDPRDIRKAAKLKEIEILVKELNDKGIEVKLDEISFIEGTEEITAIVTFPDGTKYEITINSAGGS [r8_277_TrMRF] | 1.85 ± 0.042 | 1.02 ± 0.018 | 1.42 ± 0.075
34 | SAGGDPPDIYVQIEHKNGKTRTIPFDNMSIENIAEELRDHNYDEVKISVFRMGKPIETFKIKIPPGDSAGGS [r16_700_TrROS] | 3.7 ± 0.27 | 2.95 ± 0.15 | 3.08 ± 0.52
35 | SAGGSAGGSAGGPNGKPLNLKIEIPKIEKIQRVNGRPVIRIPVRMTFPGKEVKMTIWIPISAGGSAGGSAGG [r7_739_TrROS] | 2.13 ± 0.086 | 2.44 ± 0.048 | 2.3 ± 0.095
36 | SAGGSAGGSAGDPGQELMFMWIWPWPNPDGQPWVRIFMWSVRVDDGKIKEIEPTTMWIPLSAGGSAGGSAGG [r11_35_TrROS] | 3.08 ± 0.17 | 3.774 ± 0.032 | 3.55 ± 0.26
37 | SAKKKKPLPKIKKIKITITLKDGTKIEMEITKVEVLEDGTVKIKMKMKVIDKKTKKKYEFEIEIIIKLKSAG [r14_591_TrROS_Hall] | 2.96 ± 0.27 | 3.28 ± 0.17 | 3.27 ± 0.21
38 | SAGGSAGGMEEVLALLKELGLEVKSVDIKSPDKVIVYIKPKDEKKLEELKKAVPKSLVDEIGLESAGGSAGG [r6_84_JUSTAS] | -0.0936 ± 0.083 | 0.455 ± 0.15 | 0.275 ± 0.13
39 | SAGGSAMEIVAVEKGDNTVTLLLRDPETGELYTATFHFIPGSKTVHATVTFPDGSTATFTFDATALSAGGSA [r15_1055_TrMRF] | 2.82 ± 0.09 | 4.32 ± 0.068 | 4.01 ± 0.12
40 | SAGGSAPGVTLVSSTSSTSTLPDGTTKSTTTTTYKSPTGTYTTTTTTTVDTSKGTTTPTTTVTPVSSAGGSA [r2_185_JUSTAS] | 0.645 ± 0.064 | 0.61 ± 0.16 | 0.692 ± 0.14
41 | SAGGKVAAPAQPLASTKVERTTLPTGTTVTYVTVTSSAVPTPTTYTFSPGENPGDFAAATGLPVTLVSAGGS [r16_676_JUSTAS] | -0.488 ± 0.29 | 0.339 ± 0.083 | 0.126 ± 0.092
42 | SASSITVSYDESTGVTTVTVDGGGFTFTVPNPEGKTLTVTVTQEALPDGTTRVTVTITFPDGSTTTVVVSAG [r14_675_JUSTAS] | 4.17 ± 0.2 | 5 ± 0.18 | 5.06 ± 0.17
